The test system of this data set is O=Cc1ccc([N+](=O)[O-])cc1. Kind of data set: Henry reaction, product by HPLC, Michaelis-Menten fit. Type of data set: biochemical, Lactococcus cremoris. The note with it: nitromethane 1 M (excess), 3-18 mM aldehyde, 0.3 mg/mL enzyme, 40 °C, 5 min. The source says: Henry reaction, product by HPLC, Michaelis-Menten fit on LmrR (Lactococcal multidrug resistance Regulator)

For orientation: Km means the substrate concentration at which the rate is half of its maximum. The term Vmax denotes the top rate of the reaction or transport when substrate is in excess. In general, kcat refers to the maximal rate divided by the concentration of active sites. One may read the kcat/Km as the turnover number divided by the Michaelis constant. For the substance “LmrR (Lactococcal multidrug resistance Regulator) (Lactococcus cremoris subsp. cremoris MG1363; V15F)”, the Km is listed as 8.28 mM, the maximum rate (Vmax) amounted to 1960 µM/min, the catalytic constant (kcat) came out at 1.47 s⁻¹ and the catalytic efficiency (kcat/Km) is 178 M⁻¹ s⁻¹.

Source of the values: paper PMC10992053, “Rationally introducing non-canonical amino acids to enhance catalytic activity of LmrR for Henry reaction” (Bioresources and Bioprocessing, 2024).
